Series [1] in a line: Solubility of the peptide as observed on handling. The format is physicochemical. Conditions: qualitative observation.
The target of another series is T1, eIF4E (Homo sapiens, UniProt P06730).
T1 construct: Full-length human eIF4E was expressed and purified as described previously; made in house
As to the kind of experiment: Fluorescence based thermal shift (thermal stability) assay, Sypro Red. To be noted: shift of eIF4E Tm, 10 µM eIF4E, 100 µM peptide, PBS, 20 to 90°C at 1°C/min, Ex/Em 533/640 nm. Format: binding. The procedure:
A fluorescence based thermal shift assay was used to screen and rank the rationally designed eIF4E binding derivative peptides. The fluorescent dye Sypro Red (Invitrogen) was used to monitor thermal denaturation of eIF4E. Binding of the dye molecule to eIF4E, as it unfolds due to thermal denaturation, results in a sharp increase in the fluorescence intensity. The midpoint of this transition is termed the Tm. The thermal shift assay was conducted in a LightCycler (Roche). Protein samples studied were made up to a total volume of 50 µl in PBS (Phosphate Buffered Saline) with Sypro Red, (Invitrogen, 5000× DMSO stock) at a 3.125× concentration. The final protein concentration was 10 µM. Protein samples were incubated with derivative peptides at a concentration of 100 µM. […] The fluorescence intensity was measured with Ex/Em:533/640 nm.
The fluorescence data against temperature derived from the LightCycler were fitted to Eq. (1) to obtain ΔHu, ΔCpu, and Tm by nonlinear regression using the program Prism 4.0, Graphpad: [drawing 1] (1) where Ft is the fluorescence intensity at temperature T; Tm is the midpoint temperature of the protein-unfolding transition, Fpre and Fpost are the pretransitional and posttransitional fluorescence intensities, respectively, R is the gas constant, ΔHu is the enthalpy of protein unfolding, and ΔCpu is the heat capacity change on protein unfolding. […]

Series [2] addresses T2, Eukaryotic initiation factor 4E (eIF4E), full-length human (human, UniProt P06730 1-217).
T2 construct: eIF4E, human, full length
As to the kind of experiment: fluorescence based thermal shift assay; 10 uM eIF4E with 100 uM peptide in PBS, Sypro Red, heated from 20 to 90 °C at 1 °C/min; Kd estimated from the Tm shift (enthalpy of binding taken to be -5 kcal/mol). To be noted: both partners purified.

For series [3], the target named is T2, Eukaryotic initiation factor 4E …. Kind of series: SPR; eIF4E amine coupled to a CM5 chip (about 1000 RU, m7GTP present at immobilisation), peptides injected; 10 mM Hepes pH 7.6, 0.15 M NaCl, 1 mM DTT, 0.1% Tween20, 3% DMSO; Biacore T100; Kd from the equilibrium responses (Keq), 1:1 model, three titrations. To be noted: both partners purified.
For series [4] the target is unchanged. As to the kind of experiment: SPR; eIF4E amine coupled to a CM5 chip (about 1000 RU, m7GTP present at immobilisation), peptides injected; 10 mM Hepes pH 7.6, 0.15 M NaCl, 1 mM DTT, 0.1% Tween20, 3% DMSO; Biacore T100; Kd from the association and dissociation phases (Kkin), 1:1 model, three titrations. To be noted: both partners purified.
Series [5] shares this target. Kind of series: SPR; eIF4E amine coupled to a CM5 chip (about 1000 RU, m7GTP present at immobilisation), peptides injected; 10 mM Hepes pH 7.6, 0.15 M NaCl, 1 mM DTT, 0.1% Tween20, 3% DMSO; Biacore T100; Kd from the equilibrium responses (Keq), 1:1 model, three titrations. Conditions: both partners purified. The source holds these as a separate data set.
For series [6] the target is unchanged. Kind of series: SPR; eIF4E amine coupled to a CM5 chip (about 1000 RU, m7GTP present at immobilisation), peptides injected; 10 mM Hepes pH 7.6, 0.15 M NaCl, 1 mM DTT, 0.1% Tween20, 3% DMSO; Biacore T100; Kd from the association and dissociation phases (Kkin), 1:1 model, three titrations. To be noted: both partners purified. This is another data set of the same source.

The target is the same in series [7]. Kind of series: SPR; eIF4E amine coupled to a CM5 chip (about 1000 RU, m7GTP present at immobilisation), peptides injected; 10 mM Hepes pH 7.6, 0.15 M NaCl, 1 mM DTT, 0.1% Tween20, 3% DMSO; Biacore T100; Kd from the equilibrium responses (Keq), 1:1 model, three titrations. To be noted: both partners purified. The source holds these as a separate data set.
For series [8] the target is unchanged. Kind of series: SPR; eIF4E amine coupled to a CM5 chip (about 1000 RU, m7GTP present at immobilisation), peptides injected; 10 mM Hepes pH 7.6, 0.15 M NaCl, 1 mM DTT, 0.1% Tween20, 3% DMSO; Biacore T100; Kd from the association and dissociation phases (Kkin), 1:1 model, three titrations. Conditions: both partners purified. The source holds these as a separate data set.

The values below come from publication PMC3477164, “Improved eIF4E Binding Peptides by Phage Display Guided Design: Plasticity of Interacting Surfaces Yield Collective Effects” (PLoS ONE, 2012).

Ends that are not written are not given here.

T2 sequence (P06730 whole entry): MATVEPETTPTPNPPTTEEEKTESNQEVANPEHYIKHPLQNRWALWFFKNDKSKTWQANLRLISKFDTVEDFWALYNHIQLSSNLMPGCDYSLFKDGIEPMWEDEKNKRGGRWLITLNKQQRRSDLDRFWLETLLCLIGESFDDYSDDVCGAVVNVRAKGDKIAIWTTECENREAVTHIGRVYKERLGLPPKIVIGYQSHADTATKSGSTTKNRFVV
T1 sequence (P06730 whole entry): as above

Consider KKRYSRDQLVAL [PHAGESOL], for which the “solubility of the peptide (in words)” value in [1] was “soluble”.

With “SLHYSRDQLVAL [PHAGE, phage display selected 12mer […]]”, the “Thermal Shift (Tm, °C)” value at eIF4E is given as “no observable shift”. In series [1], the “solubility of the peptide (in words)” value is “insoluble”.

B1: eIF4G1 wild type peptide (peptide)
peptide: KKRYDREFLLGF
notes: also called eIF4G1-WT; eIF4G1 peptide; source: synthetic peptide (Mimotopes), HPLC purified to >90%
Consider B1, for which the equilibrium dissociation constant (Kd) is 460 nM in [2], 580 ± 16.7 nM in series [3] and 524 ± 61.6 nM in series [4]. Further, in [2], the “thermal shift (Tm)” value is 7.03 ± 0.1 °C.

B2: VL-PHAGESOL-Q8F/L12F peptide (peptide)
peptide: KKRYSRDFLLAF
notes: PHAGESOL with V10L, Q8F and L12F; source: synthetic peptide (Mimotopes), HPLC purified to >90%
Consider B2, for which the Kd in series [5] was found to be 69.9 ± 6.4 nM; in [6], 62 ± 3.5 nM.

B3: PHAGESOL-Q8F peptide (peptide)
peptide: KKRYSRDFLVAL
notes: PHAGESOL with Q8F; source: synthetic peptide (Mimotopes), HPLC purified to >90%
For B3, the values for the Kd in series [5] and in [6] were 196 ± 6.3 nM and 184 ± 15.4 nM, respectively.

B4: eIF4G1-QL peptide (peptide)
peptide: KKRYDREQLLGL
notes: eIF4G1 peptide with F8Q and F12L; also called eIF4G1_F8Q/F12L; source: synthetic peptide (Mimotopes), HPLC purified to >90%
With B4, the Kd in series [5] is 1090 ± 49.9 nM; in series [6], 1090 ± 106 nM.

B5: eIF4G1-D5S peptide (peptide)
peptide: KKRYSREFLLGF
notes: eIF4G1 peptide with D5S; also called eIF4G-D5S; source: synthetic peptide (Mimotopes), HPLC purified to >90%
B5: the Kd is 100 nM in series [2], 103 ± 2.3 nM in series [3] and 99.9 ± 6.2 nM in series [4]. The “thermal shift (Tm)” value in series [2] is 8.97 ± 0.07 °C.

B6: eIF4G1-D5T peptide (peptide)
peptide: KKRYTREFLLGF
notes: eIF4G1 peptide with D5T; source: synthetic peptide (Mimotopes), HPLC purified to >90%
For B6, the Kd in series [7] came to 110 ± 1.8 nM; in series [8] it was 105 ± 7.2 nM.

B7: eIF4G1-D5P peptide (peptide)
peptide: KKRYPREFLLGF
notes: eIF4G1 peptide with D5P; source: synthetic peptide (Mimotopes), HPLC purified to >90%
B7: the Kd came to 684 ± 13.6 nM in series [7] and 717 ± 31.2 nM in [8].

B8: VL-PHAGESOL-Q8F peptide (peptide)
peptide: KKRYSRDFLLAL
notes: PHAGESOL with V10L and Q8F; source: synthetic peptide (Mimotopes), HPLC purified to >90%
On to B8, for which the Kd was 49.6 ± 4.3 nM in [5] and 47.1 ± 1.5 nM in [6].

B9: eIF4G1-F12L peptide (peptide)
peptide: KKRYDREFLLGL
notes: eIF4G1 peptide with F12L; also called F12L mutant peptide; source: synthetic peptide (Mimotopes), HPLC purified to >90%
In the case of B9, the results for the dissociation constant (Kd) in series [2], in series [3] and in series [4] were 520 nM, 761 ± 63.8 nM and 718 ± 98 nM, respectively. For the same molecule, the “thermal shift (Tm)” value in series [2] is 6.87 ± 0.12 °C.

B10: VL-PHAGESOL peptide (peptide)
peptide: KKRYSRDQLLAL
notes: PHAGESOL with V10L; also called PHAGESOL V10L; source: synthetic peptide (Mimotopes), HPLC purified to >90%
For the molecule B10, the Kd in [5] was 37.2 ± 1.6 nM; in [6] it was 34.7 ± 1.2 nM.

B11: PHAGESOL-Q8F/L12F peptide (peptide)
peptide: KKRYSRDFLVAF
notes: PHAGESOL with Q8F and L12F; source: synthetic peptide (Mimotopes), HPLC purified to >90%
Take B11: the Kd was 348 ± 20.9 nM in series [5] and 374 ± 33.1 nM in series [6].

B12: PHAGESOL-L12F peptide (peptide)
peptide: KKRYSRDQLVAF
notes: PHAGESOL with L12F; source: synthetic peptide (Mimotopes), HPLC purified to >90%
As to B12, the values for the Kd in series [5] and in [6] were 112 ± 2.7 nM and 120 ± 5.3 nM, respectively.

B13: VL-PHAGESOL-L12F peptide (peptide)
peptide: KKRYSRDQLLAF
notes: PHAGESOL with V10L and L12F; source: synthetic peptide (Mimotopes), HPLC purified to >90%
As to B13, the figures for the equilibrium dissociation constant (Kd) in series [5] and in series [6] were 43.21 ± 0.34 nM and 40.7 ± 3.8 nM, respectively.

B14: eIF4G1-D5C peptide (peptide)
peptide: KKRYCREFLLGF
notes: eIF4G1 peptide with D5C; source: synthetic peptide (Mimotopes), HPLC purified to >90%
B14: the Kd in series [7] was determined as 436 ± 6.4 nM; in [8], 458 ± 19.8 nM.

B15: eIF4G1-L10V peptide (peptide)
peptide: KKRYDREFLVGF
notes: eIF4G1 peptide with L10V; source: synthetic peptide (Mimotopes), HPLC purified to >90%
Consider B15, for which the Kd in [2] is 4400 nM; in series [3] it was 4540 ± 622 nM; in [4] it was 2680 ± 444 nM. The “thermal shift (Tm)” value in series [2] was 3.9 ± 0.03 °C.

B16: PHAGESOL peptide (peptide)
peptide: KKRYSRDQLVAL
notes: phage display selected 12-mer … with its N-terminal SLH changed to KKR of the eIF4G1 peptide; source: synthetic peptide (Mimotopes), HPLC purified to >90%
As to B16, the results for the Kd in series [2], in series [3] and in series [4] were 77 nM, 76.7 ± 3.4 nM and 77.1 ± 9 nM, respectively. Besides, the “thermal shift (Tm)” value in series [2] was 9.83 ± 0.1 °C.

B17: eIF4G1-E7D peptide (peptide)
peptide: KKRYDRDFLLGF
notes: eIF4G1 peptide with E7D; also called E7D mutant peptide; source: synthetic peptide (Mimotopes), HPLC purified to >90%
Take B17: the Kd in series [2] was 520 nM; in series [3], 784 ± 21.5 nM; in [4], 759 ± 70.7 nM. Further, the “thermal shift (Tm)” value in [2] was 6.87 ± 0.18 °C.

B18: eIF4G1-D5E peptide (peptide)
peptide: KKRYEREFLLGF
notes: eIF4G1 peptide with D5E; also called eIF4G-D5E; source: synthetic peptide (Mimotopes), HPLC purified to >90%
On to B18, for which the values for the Kd in [7] and in [8] were 749 ± 57.7 nM and 692 ± 31.2 nM, respectively.

B19: eIF4G1-D5G peptide (peptide)
peptide: KKRYGREFLLGF
notes: eIF4G1 peptide with D5G; source: synthetic peptide (Mimotopes), HPLC purified to >90%
As for B19, the Kd stood at 468 ± 28.1 nM in series [7] and 440 ± 26 nM in series [8].

B20: PHAGESOL-D7E peptide (peptide)
peptide: KKRYSREQLVAL
notes: PHAGESOL with D7E; source: synthetic peptide (Mimotopes), HPLC purified to >90%
In the case of B20, the values for the Kd in [5] and in series [6] were 51.6 ± 1.8 nM and 52.9 ± 2.1 nM, respectively.

B21: eIF4G1-G11A peptide (peptide)
peptide: KKRYDREFLLAF
notes: eIF4G1 peptide with G11A; source: synthetic peptide (Mimotopes), HPLC purified to >90%
In the case of B21, the Kd in [2] is 200 nM; in series [3] it was 309 ± 11.6 nM; in series [4] it was 282 ± 17.6 nM. Also, the “thermal shift (Tm)” value in series [2] is 8.13 ± 0.12 °C.

B22: eIF4G1-D5N peptide (peptide)
peptide: KKRYNREFLLGF
notes: eIF4G1 peptide with D5N; source: synthetic peptide (Mimotopes), HPLC purified to >90%
Take B22: the Kd amounted to 444.5 ± 1.6 nM in [7] and 388.9 ± 1.6 nM in series [8].

B23: eIF4G1-OPT peptide (peptide)
peptide: KKRYSREFLLAF
notes: eIF4G1 peptide with D5 changed to S and G11 changed to A; source: synthetic peptide (Mimotopes), HPLC purified to >90%
In the case of B23, the Kd in series [5] worked out at 52.2 ± 1.4 nM; in [6], 59.4 ± 2.9 nM.

B24: eIF4G1-F8Q peptide (peptide)
peptide: KKRYDREQLLGF
notes: eIF4G1 peptide with F8Q; also called eIF4G-F/Q; source: synthetic peptide (Mimotopes), HPLC purified to >90%
Turning to B24, the Kd in series [2] was 2000 nM; in series [3], 1630 ± 75.1 nM; in series [4], 1780 ± 406 nM. The “thermal shift (Tm)” value in [2] was 5 ± 0.03 °C.
